This note sets out measurements from patent US20190135918A1 (ICHNOS SCIENCES, published 2019).

The target of experiment [1] is T1, cynomolgus monkey CD3 epsilon 1-26_Fc fusion protein (cynomolgus monkey).
T1 construct: also called cynomolgus CD3 epsilon 1-26 Fc fusion protein
Put plainly: SPR, human IgG1 format, graded relative to chimeric SP34; one grade for human and cynomolgus protein.

Experiment [2] concerns the target T2, human CD3 epsilon 1-26_Fc fusion protein (human).
T2 construct: also called human CD3 1-26_Fc fusion protein
Described as above.

Positions count from the first letter of the chain named.

B1: VH1/VL2 (antibody, human IgG1, kappa)
heavy: not shown
light: EAVVTQSPATLSVSPGERATLSCRSSTGAVTTSNYANWVQEKPGQAFRGLIGGANKRAPGVPARFSGSLSGDEATLTISSLQSEDFAVYFCALWYSNLWVFGQGTKLEIKRTVAAPSVFIFPPSDEQLKSGTASVVCLLNNFYPREAKVQWKVDNALQSGNSQESVTEQDSKDSTYSLSSTLTLSKADYEKHKVYACEVTHQGLSSPVTKSFNRGEC
notes: IgG1; SP34 series; copies: 2 + 2
In the case of B1, the binding result in experiment [1] and in experiment [2] was “binds” throughout.

B2: VH1/VL6 (antibody, human IgG1, kappa, V domains shown)
VH: EVQLVESGGGLVQPGGSLRLSCAASGFTFNTYAMNWVRQAPGKGLEWVARIRSKYNNYATYYADSVKGRFTISRDDSKNTLYLQMNSLRAEDTAVYYCVRHGNFGNSYVSWFAYWGQGTTVTVSS
VL: EAVVTQSPATLSVSPGERATLSCRSSTGAVTTSNYANWVQEKPGQAPRGLIGGANKRAPGVPARFSGSLSGDEATLTISSLQSEDFAVYFCALWYSNLWVFGQGTKLEIKR
notes: IgG1; also called humanized SP34 VH1/VL6 antibody; copies: 2 + 2
Take B2: the binding result in experiment [1] and in experiment [2] was “binds” throughout.

B3: VH1/VL8 (antibody, human IgG1, kappa, V domains shown)
VH: B2 VH
VL: B2 VL with P47F, L69G
notes: IgG1; also called humanized SP34 VH1/VL8 antibody; copies: 2 + 2
B3: the binding result in experiment [1] and in experiment [2] was “binds” throughout.

B4: VH1/VL10 (antibody, human IgG1, kappa)
heavy: not shown
light: B1 light with F90Y
notes: IgG1; also called humanized SP34 VH1/VL10 antibody; copies: 2 + 2
For B4, the binding result in experiment [1] and in experiment [2] was “binds” throughout.

B5: VH1/VL13 (antibody, human IgG1, kappa)
heavy: not shown
light: B1 light with S25A
notes: IgG1; also called humanized SP34 VH1/VL13 antibody; copies: 2 + 2
On to B5, for which the binding result in experiment [1] and in experiment [2] was “binds” in each case.

B6: VH1/VL11 (antibody, human IgG1, kappa, V domains shown)
VH: B2 VH
VL: B2 VL with P47F, L69G, D72T
notes: IgG1; also called humanized SP34 VH1/VL11 antibody; copies: 2 + 2
Consider B6, for which the binding result in experiment [1] and in experiment [2] was “binds” in each case.

B7: VH1/VL12 (antibody, human IgG1, kappa)
heavy: not shown
light: B1 light with D72T
notes: IgG1; also called humanized SP34 VH1/VL12 antibody; copies: 2 + 2
For the molecule B7, the binding result in experiment [1] and in experiment [2] was “binds” in each case.

B8: VH1/VL5 (antibody, human IgG1, kappa)
heavy: not shown
light: B1 light with A2I
notes: IgG1; also called humanized SP34 VH1/VL5 antibody; copies: 2 + 2
As to B8, the binding result in experiment [1] and in experiment [2] was “binds” throughout.

B9: Chimeric SP34 (antibody, human IgG1, kappa, V domains shown)
VH: EVQLVESGGGLVQPKGSLKLSCAASGFTFNTYAMNWVRQAPGKGLEWVARIRSKYNNYATYYADSVKDRFTISRDDSQSILYLQMNNLKTEDTAMYYCVRHGNFGNSYVSWFAYWGQGTLVTVSA
VL: QAVVTQESALTTSPGETVTLTCRSSTGAVTTSNYANWVQEKPDHLFTGLIGGTNKRAPGVPARFSGSLIGDKAALTITGAQTEDEAIYFCALWYSNLWVFGGGTKLTVLR
notes: IgG1; also called chimeric SP34 antibody; SP34 chimera
Take B9: the binding result in experiment [1] and in experiment [2] was “binds” throughout.
